We go through eleven sequences from the Immune Epitope Database (IEDB).

Some results are limits rather than exact numbers.

In assay [1] the target is HLA-A*02:01. In words: IEDB peptide-MHC binding, purified MHC/direct/fluorescence; filed as Kd, often an IC50 or EC50 that approximates it; ≥ and ≤ were set here for values at or beyond the usual limits of such assays.
Assay [2] concerns the target HLA-A*26:01. Nature of the assay: IEDB peptide-MHC binding, purified MHC/competitive/fluorescence; filed as Kd, often an IC50 or EC50 that approximates it; ≥ and ≤ were set here for values at or beyond the usual limits of such assays. Particulars: source organism: Homo sapiens.
The target of assay [3] is HLA-A*69:01. The assay is described as above. Particulars: source organism: Homo sapiens.
For a further assay, the target named is HLA-B*18:01. The assay is described as above. Particulars: source organism: Homo sapiens.
The target in a further assay is HLA-B*27:03. The description is as above. Particulars: source organism: Homo sapiens.
The target of assay [4] is HLA-B*46:01. Described as above. As to conditions: source organism: Homo sapiens.
Assay [5] addresses HLA-B*51:01. The assay is described as above. Particulars: source organism: Homo sapiens.
Assay [6] deals with HLA-B*57:01. The assay is described as above. Particulars: source organism: Homo sapiens.
For a further assay, the target named is HLA-B*15:17. In words: IEDB peptide-MHC binding, purified MHC/direct/fluorescence; filed as Kd, often an IC50 or EC50 that approximates it; ≥ and ≤ were set here for values at or beyond the usual limits of such assays.
Assay [7] addresses HLA-B*57:01. The description is as above.
The target of a further assay is HLA-B*58:01. The assay is described as above.
The target of a further assay is HLA-B*48:01. Described as above.
Another assay has as its target HLA-A*02:06. Nature of the assay: IEDB peptide-MHC binding, purified MHC/competitive/radioactivity; filed as Kd, often an IC50 or EC50 that approximates it; ≥ and ≤ were set here for values at or beyond the usual limits of such assays.
In assay [8] the target is HLA-B*15:01. Nature of the assay: IEDB peptide-MHC binding, purified MHC/competitive/fluorescence; filed as Kd, often an IC50 or EC50 that approximates it; ≥ and ≤ were set here for values at or beyond the usual limits of such assays. As to conditions: source organism: Homo sapiens.
Assay [9] has as its target HLA-A*02:01. Nature of the assay: IEDB peptide-MHC binding, purified MHC/competitive/radioactivity; filed as Kd, often an IC50 or EC50 that approximates it; ≥ and ≤ were set here for values at or beyond the usual limits of such assays. Particulars: source organism: Vaccinia virus WR.
The target of the next assay is HLA-A*02:02. The description is as above. Particulars: source organism: Vaccinia virus WR.
For a further assay, the target named is HLA-A*02:03. Described as above. As to conditions: source organism: Vaccinia virus WR.
For assay [10], the target named is HLA-A*03:01. The description is as above. As to conditions: source organism: Vaccinia virus WR.
Assay [11] addresses HLA-A*11:01. Described as above. Particulars: source organism: Vaccinia virus WR.
For assay [12], the target named is HLA-A*31:01. The description is as above. As to conditions: source organism: Vaccinia virus WR.
The target of the next assay is HLA-A*33:01. Described as above. Particulars: source organism: Vaccinia virus WR.
Another assay addresses HLA-A*68:01. The description is as above. Particulars: source organism: Vaccinia virus WR.
In a further assay the target is HLA-A*68:02. The description is as above. Particulars: source organism: Vaccinia virus WR.
In assay [13] the target is HLA-B*07:02. The assay is described as above. As to conditions: source organism: Vaccinia virus WR.
The target of a further assay is HLA-B*35:01. Described as above. As to conditions: source organism: Vaccinia virus WR.
Assay [14] has as its target HLA-B*51:01. The description is as above. Particulars: source organism: Vaccinia virus WR.
In another assay the target is HLA-B*53:01. The description is as above. As to conditions: source organism: Vaccinia virus WR.
The next assay addresses HLA-B*54:01. Described as above. Particulars: source organism: Vaccinia virus WR.
A further assay has as its target HLA-A*01:01. In words: IEDB peptide-MHC binding, purified MHC/direct/fluorescence; filed as Kd, often an IC50 or EC50 that approximates it; ≥ and ≤ were set here for values at or beyond the usual limits of such assays.
For assay [15], the target named is HLA-A*03:01. Described as above.
Assay [16] has as its target HLA-A*11:01. The assay is described as above.
Assay [17] deals with HLA-A*31:01. Described as above.
For assay [18], the target named is HLA-B*07:02. The assay is described as above.
The next assay concerns the target HLA-B*08:01. Described as above.
The next assay deals with HLA-B*27:05. The assay is described as above.
The target of another assay is HLA-B*40:01. The assay is described as above.
The next assay addresses HLA-B*44:02. The assay is described as above.
Assay [19] has as its target HLA-B*46:01. The assay is described as above. Particulars: source organism: Mammarenavirus juninense.
In a further assay the target is HLA-A*24:03. Described as above. Particulars: source organism: Vibrio cholerae.
In assay [20] the target is HLA-A*26:01. The assay is described as above. As to conditions: source organism: Vibrio cholerae.
Assay [21] has as its target HLA-A*69:01. Described as above. As to conditions: source organism: Vibrio cholerae.
In assay [22] the target is HLA-B*15:01. Described as above. As to conditions: source organism: Vibrio cholerae.
The mark [23] stands for this setting: source organism: Mammarenavirus lassaense.
The mark [24] stands for this setting: source organism: Camelpox virus M-96.
[25] abbreviates: source organism: Bacillus cytotoxicus.
[26] abbreviates: source organism: Mammarenavirus juninense.
[27] abbreviates: source organism: Vibrio cholerae.

What is called Kd is a measure of binding affinity in units of concentration. With KQMEDGHTL, the equilibrium dissociation constant (Kd) with HLA-A*02:01 [1] (source organism: Rattus norvegicus) is 0.0048 µM; with HLA-A*26:01 [2] it was at least 20 µM; with HLA-A*69:01 [3] it was at least 20 µM; with HLA-B*18:01, at least 20 µM; with HLA-B*27:03 it was at least 20 µM; with HLA-B*46:01 [4], at least 20 µM. For the same sequence, the Kd in the assay with HLA-B*51:01 [5] and with HLA-B*57:01 [6] was at least 20 µM in each case.
For the sequence LSVSSRCPI, the Kd with HLA-B*15:17 (setting [23]) came to 0.0041 µM; with HLA-B*57:01 [7] (setting [23]) it was 1.17 µM; in the assay with HLA-B*58:01 (setting [23]) it was 0.139 µM.
In the case of KSTSPTRTW, the Kd with HLA-B*15:17 (setting [24]) stood at 0.0024 µM; in the assay with HLA-B*57:01 [7] (setting [24]) it was 0.0707 µM; with HLA-B*58:01 (setting [24]) it was 0.035 µM.
Sequence KQIAEHATI registered a Kd with HLA-B*48:01 (source organism: Bacillus thuringiensis) of 0.351 µM.
KQLGQVMLL: the Kd is 0.0062 µM in the assay with HLA-B*48:01 (source organism: dengue virus type 2) and 0.00517 µM with HLA-A*02:06 (source organism: Dengue virus 2 Jamaica/1409/1983).
Take LVKSAWLSL: the Kd with HLA-A*26:01 [2], with HLA-A*69:01 [3], with HLA-B*15:01 [8] and with HLA-B*51:01 [5] was at least 20 µM each time.
On to KTMMQAHDL, for which the Kd with HLA-B*15:17 (setting [25]) stood at 0.226 µM; in the assay with HLA-B*57:01 [7] (source organism: Bacillus cereus AH1134) it was 0.12 µM; with HLA-B*58:01 (setting [25]), 0.0759 µM.
On to SFSLESDSIK, for which the Kd with HLA-A*02:01 [9] was at least 69.4 µM; with HLA-A*02:02, at least 70 µM; with HLA-A*02:03, at least 70.4 µM; in the assay with HLA-A*02:06 (source organism: Vaccinia virus WR), at least 59.7 µM; in the assay with HLA-A*03:01 [10], at least 22 µM; with HLA-A*11:01 [11], 5.91 µM. The Kd is 2.66 µM with HLA-A*31:01 [12]; at least 70 µM in the assay with HLA-A*33:01; 7.76 µM with HLA-A*68:01; at least 69.8 µM with HLA-A*68:02; at least 69.6 µM with HLA-B*07:02 [13]; at least 69.9 µM in the assay with HLA-B*35:01. Further, the Kd is at least 69.6 µM with HLA-B*51:01 [14], at least 69.9 µM with HLA-B*53:01 and at least 69.9 µM with HLA-B*54:01.
In the assay with HLA-B*48:01 (source organism: Yellow fever virus), SRLLMRRMR gave a Kd of at least 20 µM.
Turning to YAKKFKTGM, the Kd in the assay with HLA-A*01:01 (setting [26]), in the assay with HLA-A*02:01 [1] (setting [26]), with HLA-A*03:01 [15] (setting [26]), with HLA-A*11:01 [16] (setting [26]), with HLA-A*31:01 [17] (setting [26]) and with HLA-B*07:02 [18] (setting [26]) was at least 20 µM each time. Also, the Kd was 0.417 µM with HLA-B*08:01 (setting [26]); at least 20 µM with HLA-B*27:05 (setting [26]); at least 20 µM with HLA-B*40:01 (setting [26]); at least 20 µM with HLA-B*44:02 (setting [26]); at least 20 µM in the assay with HLA-B*46:01 [19]; at least 20 µM with HLA-B*57:01 [7] (setting [26]). The sequence also returned a Kd with HLA-B*58:01 (setting [26]) of at least 20 µM.
As to DSDPMDGCE, the Kd with HLA-A*01:01 (setting [27]), in the assay with HLA-A*02:01 [1] (setting [27]), with HLA-A*03:01 [15] (setting [27]), with HLA-A*11:01 [16] (setting [27]), with HLA-A*24:03 and with HLA-A*26:01 [20] was at least 20 µM in each case. The dissociation constant Kd in the assay with HLA-A*31:01 [17] (setting [27]), with HLA-A*69:01 [21], with HLA-B*07:02 [18] (setting [27]), in the assay with HLA-B*08:01 (setting [27]), with HLA-B*15:01 [22] and with HLA-B*27:05 (setting [27]) was at least 20 µM each time. Besides, the Kd with HLA-B*40:01 (setting [27]), with HLA-B*44:02 (setting [27]) and with HLA-B*58:01 (setting [27]) was at least 20 µM throughout.
